Results reported in paper PMC4500674 (Archives of biochemistry and biophysics, 2015).

Target: T1, human Mia40, wild type, short linker form (human, UniProt Q8N4Q1 1-142)
T1 sequence: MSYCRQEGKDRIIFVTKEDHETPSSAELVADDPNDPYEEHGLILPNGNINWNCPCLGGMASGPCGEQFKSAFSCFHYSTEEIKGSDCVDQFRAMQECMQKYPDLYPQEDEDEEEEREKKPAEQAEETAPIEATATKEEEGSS
Experiment: stopped-flow fluorescence kinetics

B1: reduced bovine pancreatic ribonuclease A (natural protein, UniProt P61823 27-150, looked up)
chain: KETAAAKFERQHMDSSTSAASSSNYCNQMMKSRNLTKDRCKPVNTFVHESLADVQAVCSQKNVACKNGQTNCYQSYSTMSITDCRETGSSKYPNCAYKTTQANKHIIVACEGNPYVPVHFDASV
  Kd: 10.4 ± 0.2 µM
